Target: T1, AXL (Homo sapiens, UniProt P30530)
T1 sequence (P30530 26-894): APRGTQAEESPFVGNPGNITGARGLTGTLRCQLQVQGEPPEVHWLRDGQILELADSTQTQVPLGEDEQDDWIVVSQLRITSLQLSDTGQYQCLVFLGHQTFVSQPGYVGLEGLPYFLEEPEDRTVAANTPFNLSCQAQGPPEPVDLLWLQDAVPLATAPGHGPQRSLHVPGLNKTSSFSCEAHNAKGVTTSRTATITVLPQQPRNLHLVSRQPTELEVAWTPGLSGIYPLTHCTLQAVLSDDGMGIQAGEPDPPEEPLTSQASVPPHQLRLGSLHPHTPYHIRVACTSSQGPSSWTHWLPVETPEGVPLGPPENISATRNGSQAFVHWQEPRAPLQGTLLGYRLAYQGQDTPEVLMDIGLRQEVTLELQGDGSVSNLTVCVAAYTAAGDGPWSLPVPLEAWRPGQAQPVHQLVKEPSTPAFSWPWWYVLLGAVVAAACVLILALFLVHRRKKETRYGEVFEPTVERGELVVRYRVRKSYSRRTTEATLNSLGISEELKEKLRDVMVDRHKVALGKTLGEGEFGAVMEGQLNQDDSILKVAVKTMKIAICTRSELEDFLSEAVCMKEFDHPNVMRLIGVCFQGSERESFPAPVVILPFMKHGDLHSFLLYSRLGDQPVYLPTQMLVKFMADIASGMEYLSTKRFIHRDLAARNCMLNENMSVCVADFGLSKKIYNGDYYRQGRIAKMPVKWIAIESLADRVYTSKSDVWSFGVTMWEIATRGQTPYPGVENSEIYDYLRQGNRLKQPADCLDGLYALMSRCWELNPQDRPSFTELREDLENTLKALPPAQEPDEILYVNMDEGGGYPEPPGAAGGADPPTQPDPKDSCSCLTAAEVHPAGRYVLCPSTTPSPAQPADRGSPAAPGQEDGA
Experiment: Axl phosphorylation ELISA, rat versus chimeric antibody
Format: cell-based
Design: endogenous in cells; host or cells: CaSki cervical cancer cells
Method: In order to investigate whether the rat anti-Axl antibodies of the invention and the corresponding chimeric anti-Axl antibodies of the invention were able to inhibit ligand Gas6-mediated Axl activation in vitro to similar extent, ELISA experiments on CaSki cervical cancer cells were performed. Gas6-mediated Axl activation was thereby detected by increased receptor tyrosine phosphorylation. In brief, on day 1, 3×10^4 cells per well were seeded in normal growth medium in flat-bottom 96 well plates. The next day, growth medium was replaced by serum-free medium to starve cells over night for 24 h. Also over night, black Maxi-Sorp 96 well plates (Nunc) were coated with mouse anti-phospho-tyrosine antibody 4G10 at 2 μg/ml PBS and 4° C. On day 3, the 4G10 antibody solution was removed and Maxi-Sorp wells were blocked with PBS, 0.5% BSA for at lest 4 h at room temperature. In parallel, cells were pre-incubated with 50 ng/ml, 100 ng/ml, 300 ng/ml, 750 ng/ml, 1 μg/ml, and 10 μg/ml of rat anti-Axl antibody 11B7 or chimeric anti-Axl antibody ch11B7 for 1 h at 37° C. and subsequently treated with or without 400 ng/ml Gas6 (R&D Systems) for 10 min at 37° C. […] Using a Victor plate reader (Perkin Elmer), the fluorescence of each well was collected at an excitation wavelength of 430 nm and an emission wavelength of 580 nm.

B1: 11B7: antagonistic rat anti-AXL monoclonal antibody, rat IgG1 (antibody, V domains shown)
VL: DIQMTQAPSSLPASLGDRVTITCRASQDIGNYLRWFQQKPGKSPRLMISGATNLAAGVPSRFSGSRSGSDYSLTISSLESEDMADYYCLQSKESPWTFGGGTKLELK
VH: EVQLQESGPGLVKPSQSLSLTCSVTGYSITSNYWGWIRKFPGDKMEWMGYITYSGSTSYNPSLKSRISITRDTSKNQFFLQLNSVTSEDTATYYCAITTFYYWGQGVMVTVSS
50 ng/ml to 10 μg/ml antibody, 400 ng/ml Gas6, CaSki cervical cancer cells
  ligand-induced Axl activation (relative Axl phosphorylation), concentration-dependent: able to block ligand-induced activation of the receptor tyrosine kinase Axl to similar extent
Same experimental settings, C-8161
  ligand-induced Axl activation in melanoma cell line C-8161: Comparable effects
